Where a chain is given by its changes, count along the chain named. In names and notes the source's numbering stands.
B1: VHH moiety 13 (MC6.1C22-Y59E) (VHH)
VHH: EVQLLESGGGLVQPGGSLRLSCAASGRYIDETAVAWFRQAPGKEREFVAGIGGGVDITEYADSVKGRFTISRDNSKNTLYLQMNSLRPEDTAVYYCAARPGRPLITSKVADLYPYWGQGTLVTVSS
B2: VHH moiety 24 (MC6.1C22-L104G) (VHH)
VHH: B1 VHH with E59Y, L104G
B3: VHH moiety 25 (MC6.1C22-L104Q) (VHH)
VHH: B1 VHH with E59Y, L104Q
B4: VHH moiety 26 (MC6.1C22-L104T) (VHH)
VHH: B1 VHH with E59Y, L104T
B5: VHH moiety 27 (MC6.1C22-S107E) (VHH)
VHH: B1 VHH with E59Y, S107E
B6: VHH moiety 14 (MC6.1C22-Y59Q) (VHH)
VHH: B1 VHH with E59Q
B7: VHH moiety 23 (MC6.1C22-L104E) (VHH)
VHH: B1 VHH with E59Y, L104E
B8: VHH moiety 20 (MC6.1C22-P103) (VHH)
VHH: B1 VHH with E59Y, P103E
notes: name printed without the new residue
B9: VHH moiety 12 (MC6.1C22-Y59A) (VHH)
VHH: B1 VHH with E59A
B10: VHH moiety 16 (MC6.1C22-Y59T) (VHH)
VHH: B1 VHH with E59T
B11: VHH moiety 15 (MC6.1C22-Y59S) (VHH)
VHH: B1 VHH with E59S
B12: VHH moiety 11 (MC6.1C22-157Q) (VHH)
VHH: B1 VHH with I57Q, E59Y
notes: name printed as 157Q
B13: VHH moiety 18 (MC6.1C22-R102Q) (VHH)
VHH: B1 VHH with E59Y, R102Q
B14: VHH moiety 19 (MC6.1C22-R102S) (VHH)
VHH: B1 VHH with E59Y, R102S
B15: VHH moiety 10 (MC6.1C22-157E) (VHH)
VHH: B1 VHH with I57E, E59Y
notes: name printed as 157E
B16: VHH moiety 4 (MC6.1C80.43) (VHH)
VHH: B1 VHH with E44G, E59Y
B17: VHH moiety 22 (MC6.1C22-P103S) (VHH)
VHH: B1 VHH with E59Y, P103S
B18: VHH moiety 8 (MC6.1C22-G26Y) (VHH)
VHH: B1 VHH with G26Y, E59Y
B19: VHH moiety 9 (MC6.1C22-R27A) (VHH)
VHH: B1 VHH with R27A, E59Y
B20: VHH moiety 39 (MC6.1C90.43) (VHH)
VHH: B1 VHH with E44G, E59Y, A97G
B21: VHH moiety 40 (MC6.1C95.43) (VHH)
VHH: B1 VHH with E44G, E59Y, A97G, A98T
B22: VHH moiety 17 (MC6.1C22-R102K) (VHH)
VHH: B1 VHH with E59Y, R102K
B23: VHH moiety 21 (MC6.1C22-P103Q) (VHH)
VHH: B1 VHH with E59Y, P103Q

Target: T1, Cynomolgus monkey serum albumin (cynomolgus monkey, UniProt A2V9Z4 25-608)
T1 construct: bought; immobilised on a CM5 chip by amine coupling; also called Cyno SA
Assay: SPR, SA on chip, 25 C

| Binder | binding result |
| --- | --- |
| B1 | no binding (tested: 300 nM) |
| B2 | no binding (tested: 300 nM) |
| B3 | no binding (tested: 300 nM) |
| B4 | no binding (tested: 300 nM) |
| B5 | no binding (tested: 300 nM) |
| B6 | no binding (tested: 300 nM) |
| B7 | no binding (tested: 300 nM) |
| B8 | no binding (tested: 300 nM) |

Target: T2, Mouse serum albumin (mouse, UniProt P07724 25-608)
T2 construct: bought; immobilised on a CM5 chip by amine coupling; also called Mouse SA
Assay: SPR, SA on chip, 25 C

| Binder | binding result |
| --- | --- |
| B9 | no binding (tested: 300 nM) |
| B10 | no binding (tested: 300 nM) |
| B1 | no binding (tested: 300 nM) |
| B2 | no binding (tested: 300 nM) |
| B4 | no binding (tested: 300 nM) |
| B5 | no binding (tested: 300 nM) |
| B6 | no binding (tested: 300 nM) |
| B7 | no binding (tested: 300 nM) |
| B11 | no binding (tested: 300 nM) |
| B8 | no binding (tested: 300 nM) |
| B12 | no binding (tested: 300 nM) |

Target: T3, Rat serum albumin (rat, UniProt P02770 25-608)
T3 construct: bought; immobilised on a CM5 chip by amine coupling; also called Rat SA
Assay: SPR, SA on chip, 25 C

| Binder | binding result |
| --- | --- |
| B9 | no binding (tested: 300 nM) |
| B10 | no binding (tested: 300 nM) |
| B1 | no binding (tested: 300 nM) |
| B2 | no binding (tested: 300 nM) |
| B4 | no binding (tested: 300 nM) |
| B5 | no binding (tested: 300 nM) |
| B6 | no binding (tested: 300 nM) |
| B7 | no binding (tested: 300 nM) |
| B11 | no binding (tested: 300 nM) |
| B8 | no binding (tested: 300 nM) |
| B12 | no binding (tested: 300 nM) |

Target: T4, Pig serum albumin (pig, UniProt P08835 25-607)
T4 construct: bought; immobilised on a CM5 chip by amine coupling; also called Pig SA
Assay: SPR, SA on chip, 25 C

| Binder | binding result |
| --- | --- |
| B9 | no binding (tested: 300 nM) |
| B10 | no binding (tested: 300 nM) |
| B1 | no binding (tested: 300 nM) |
| B2 | no binding (tested: 300 nM) |
| B4 | no binding (tested: 300 nM) |
| B5 | no binding (tested: 300 nM) |
| B6 | no binding (tested: 300 nM) |
| B7 | no binding (tested: 300 nM) |
| B11 | no binding (tested: 300 nM) |
| B8 | no binding (tested: 300 nM) |
| B12 | no binding (tested: 300 nM) |

Target: T5, Dog serum albumin (dog, UniProt P49822 25-608)
T5 construct: bought; immobilised on a CM5 chip by amine coupling; also called Dog SA
Assay: SPR, SA on chip, 25 C

| Binder | binding result |
| --- | --- |
| B9 | no binding (tested: 300 nM) |
| B1 | no binding (tested: 300 nM) |
| B2 | no binding (tested: 300 nM) |
| B4 | no binding (tested: 300 nM) |
| B5 | no binding (tested: 300 nM) |
| B6 | no binding (tested: 300 nM) |
| B7 | no binding (tested: 300 nM) |
| B11 | no binding (tested: 300 nM) |
| B12 | no binding (tested: 300 nM) |

Target: T6, Cow serum albumin (cow, UniProt P02769 25-607)
T6 construct: bought; immobilised on a CM5 chip by amine coupling; also called Cow SA
Assay: SPR, SA on chip, 25 C

| Binder | binding result |
| --- | --- |
| B9 | no binding (tested: 300 nM) |
| B10 | no binding (tested: 300 nM) |
| B1 | no binding (tested: 300 nM) |
| B3 | no binding (tested: 300 nM) |
| B4 | no binding (tested: 300 nM) |
| B5 | no binding (tested: 300 nM) |
| B13 | no binding (tested: 300 nM) |
| B6 | no binding (tested: 300 nM) |
| B11 | no binding (tested: 300 nM) |
| B8 | no binding (tested: 300 nM) |
| B14 | no binding (tested: 300 nM) |
| B15 | no binding (tested: 300 nM) |
| B12 | no binding (tested: 300 nM) |

Target: T7, Human serum albumin (human, UniProt P02768 25-609)
T7 construct: bought; immobilised on a CM5 chip by amine coupling; also called Human SA
Assay: SPR, SA on chip, VHH 300 nM, 25 C
Description: (§1) Immobilization of SA to a Series S Sensor Chip CM5 surface is performed according to the manufacturer's instructions (amine coupling kit BR-1000-50). […] Human SA is obtained from Sigma Aldrich (St. Louis, MO; Cat. No. A8763). […] Mouse SA is obtained from Sigma Aldrich (Cat. No. A3559). Rat SA is obtained from Sigma Aldrich (Cat. No. A4538). Pig SA is obtained from Sigma Aldrich (Cat. No. A4414). […] Cow SA is obtained from Sigma Aldrich (Cat. No. A7030). The various SAs are covalently immobilized through free amines onto a carboxymethyl dextran-coated sensor chip CM5 targeting a surface density of average approximately 77 (58-98) RU. Excess reactive groups on the surfaces (flow cell 1 and 2) are deactivated by injecting 70 μL of 1 M ethanolamine hydrochloride-NaOH, pH 8.5, at 10 μL/min.
(§2) VHH moieties are diluted in HBS-EP+buffer (10 mM HEPES, pH 7.6, 150 mM NaCl, 3 mM EDTA, and 0.05% Polysorbate 20) at concentrations of 300 nM. 150 μL of sample is individually injected sequentially across the immobilized SAs surface and is dissociated for 600 sec at a flow rate of 50 L/min at 25 C. […] The resulting sensorgrams are analyzed using Biacore 8K Insight Evaluation Software (version 2.0.15.12933) to calculate the dissociation rate (kd).

| Binder | koff |
| --- | --- |
| B16 | 0.00021 s⁻¹ |
| B9 | 0.011 s⁻¹ |
| B10 | 0.0039 s⁻¹ |
| B17 | 0.0028 s⁻¹ |
| B18 | 0.001 s⁻¹ |
| B19 | 0.0012 s⁻¹ |
| B5 | 0.014 s⁻¹ |
| B20 | 9.4e-05 s⁻¹ |
| B13 | 0.0076 s⁻¹ |
| B6 | 0.013 s⁻¹ |
| B21 | 0.00014 s⁻¹ |
| B11 | 0.0058 s⁻¹ |
| B8 | 0.0092 s⁻¹ |
| B14 | 0.0045 s⁻¹ |
| B22 | 0.0015 s⁻¹ |
| B23 | 0.0025 s⁻¹ |
| B12 | 0.0074 s⁻¹ |

Target: T1, Cynomolgus monkey serum albumin
Assay: SPR, SA on chip, VHH 300 nM, 25 C
Description: as §1, §2

| Binder | koff |
| --- | --- |
| B16 | 0.00053 s⁻¹ |
| B10 | 0.015 s⁻¹ |
| B17 | 0.014 s⁻¹ |
| B18 | 0.003 s⁻¹ |
| B19 | 0.0032 s⁻¹ |
| B20 | 0.0006 s⁻¹ |
| B13 | 0.0072 s⁻¹ |
| B21 | 0.00072 s⁻¹ |
| B14 | 0.0073 s⁻¹ |
| B22 | 0.0022 s⁻¹ |
| B23 | 0.014 s⁻¹ |

Target: T2, Mouse serum albumin
Assay: SPR, SA on chip, VHH 300 nM, 25 C
Description: as §1, §2

| Binder | koff |
| --- | --- |
| B16 | 0.0043 s⁻¹ |
| B17 | 0.01 s⁻¹ |
| B18 | 0.0032 s⁻¹ |
| B19 | 0.013 s⁻¹ |
| B20 | 0.0056 s⁻¹ |
| B21 | 0.0054 s⁻¹ |
| B14 | 0.015 s⁻¹ |
| B22 | 0.01 s⁻¹ |
| B23 | 0.013 s⁻¹ |

Target: T3, Rat serum albumin
Assay: SPR, SA on chip, VHH 300 nM, 25 C
Description: as §1, §2

| Binder | koff |
| --- | --- |
| B16 | 0.0033 s⁻¹ |
| B17 | 0.01 s⁻¹ |
| B18 | 0.0075 s⁻¹ |
| B19 | 0.011 s⁻¹ |
| B20 | 0.0038 s⁻¹ |
| B13 | 0.014 s⁻¹ |
| B21 | 0.0053 s⁻¹ |
| B14 | 0.015 s⁻¹ |
| B22 | 0.0081 s⁻¹ |
| B23 | 0.011 s⁻¹ |

Target: T4, Pig serum albumin
Assay: SPR, SA on chip, VHH 300 nM, 25 C
Description: as §1, §2

| Binder | koff |
| --- | --- |
| B16 | 0.0057 s⁻¹ |
| B17 | 0.011 s⁻¹ |
| B18 | 0.0092 s⁻¹ |
| B19 | 0.012 s⁻¹ |
| B20 | 0.0065 s⁻¹ |
| B21 | 0.0058 s⁻¹ |
| B14 | 0.014 s⁻¹ |
| B22 | 0.013 s⁻¹ |
| B23 | 0.01 s⁻¹ |

Target: T5, Dog serum albumin
Assay: SPR, SA on chip, VHH 300 nM, 25 C
Description: as §1, §2

| Binder | koff |
| --- | --- |
| B16 | 0.0017 s⁻¹ |
| B17 | 0.0074 s⁻¹ |
| B18 | 0.0022 s⁻¹ |
| B19 | 0.011 s⁻¹ |
| B20 | 0.0021 s⁻¹ |
| B13 | 0.015 s⁻¹ |
| B21 | 0.0021 s⁻¹ |
| B14 | 0.014 s⁻¹ |
| B22 | 0.0082 s⁻¹ |
| B23 | 0.0081 s⁻¹ |

Target: T6, Cow serum albumin
Assay: SPR, SA on chip, VHH 300 nM, 25 C
Description: as §1, §2

| Binder | koff |
| --- | --- |
| B18 | 0.015 s⁻¹ |
| B22 | 0.015 s⁻¹ |

Reference: patent US20240316154A1 (Eli Lilly, published 2024)
